According to patent US20170233497A1:

Target: IgG1Δhinge fragment of IgG1-7D8-K409R (human)
Test: native mass spectrometry; CH2-CH3 fragment mixed 24 h with the IgG1Δhinge fragment of IgG1-7D8-K409R (heterodimer)

Kd	Binder
0.012 µM	CH2-CH3 fragment of human IgG1 with F405L, P01857 224-330 (protein, UniProt P01857-1 224-330, looked up, name in EU numbering, not shown: small tags and cut ends) GQPREPQVYTLPPSRDELTKNQVSLTCLVKGFYPSDIAVEWESNGQPENNYKTTPPVLDSDGSFLLYSKLTVDKSRWQQGNVFSCSVMHEALHNHYTQKSLSLSPGK
0.017 µM	CH2-CH3 fragment of human IgG1 with T350I-K370T-F405L, P01857 224-330 (protein, UniProt P01857-1 224-330, looked up, name in EU numbering, not shown: small tags and cut ends) GQPREPQVYILPPSRDELTKNQVSLTCLVTGFYPSDIAVEWESNGQPENNYKTTPPVLDSDGSFLLYSKLTVDKSRWQQGNVFSCSVMHEALHNHYTQKSLSLSPGK
